Measured values as given in paper PMC11772769, “Selective cargo and membrane recognition by SNX17 regulates its interaction with Retriever” (EMBO Reports, 2024).

Molecular target: T1, Peptide SNX17_(CT-18), Q15036
T1 chain: ASDVHGNFAFEGIGDEDL
Experiment: fluorescence anisotropy
Details: chain shown with the change; 5-FAM-labeled SNX17CT-18 peptide; parent: LB

B1: MBP-SNX17 (full-length, wild-type), Q15036 N459A; F462A (protein)
chain: MHFSIPETESRSGDSGGSAYVAYNIHVNGVLHCRVRYSQLLGLHEQLRKEYGANVLPAFPPKKLFSLTPAEVEQRREQLEKYMQAVRQDPLLGSSETFNSFLRRAQQETQQVPTEEVSLEVLLSNGQKVLVNVLTSDQTEDVLEAVAAKLDLPDDLIGYFSLFLVREKEDGAFSFVRKLQEFELPYVSVTSLRSQEYKIVLRKSYWDSAYDDDVMENRVGLNLLYAQTVSDIERGWILVTKEQHRQLKSLQEKVSKKEFLRLAQTLRHYGYLRFDACVADFPEKDCPVVVSAGNSELSLQLRLPGQQLREGSFRVTRMRCWRVTSSVPLPSGSTSSPGRGRGEVRLELAFEYLMSKDRLQWVTITSPQAIMMSICLQSMVDELMVKKSGGSIRKMLRRRVGGTLRRSDSQQAVKSPPLLESPDATRESMVKLSSKLSAVSLRGIGSPSTDASASDVHGAFAAEGIGDEDL
B1 showed a Kd of 86 µM.
